Test results from article PMC8657803, “Structural Insight into the Binding of TGIF1 to SIN3A PAH2 Domain through a C-Terminal Amphipathic Helix” (International Journal of Molecular Sciences, 2021).

Molecular target: T1, TGIF1_(256–401), recombinant truncation covering RD2 (human, UniProt Q15583-1 256-401)
T1 construct: two additional residues left at the N-terminus after thrombin removal of the purification tag; 15N-labelled in the NMR titration; also called TGIF1 RD2 truncation; TGIF1 M256–A401
Test: NMR titration; 0.1 mM 15N-labelled TGIF1 truncation mixed with non-labelled SIN3A PAH2 at molar ratios 1:0 to 1:2; 1H-15N HSQC; 20 mM HEPES, 80 mM NaCl, 2 mM DTT, 0.05% NaN3, pH 6.4, 90% H2O/10% D2O; 293 K (25 °C) as printed
Details: both partners purified

T1 sequence (Q15583 other isoform, or with tags, fused parts or gaps): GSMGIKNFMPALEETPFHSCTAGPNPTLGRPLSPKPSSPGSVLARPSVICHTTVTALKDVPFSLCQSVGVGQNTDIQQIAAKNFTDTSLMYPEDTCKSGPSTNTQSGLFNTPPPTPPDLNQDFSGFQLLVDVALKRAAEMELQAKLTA

- binding result: binds
B1: SIN3A PAH2 (residues S295–N384), recombinant (domain or fragment, human, UniProt Q96ST3 295-384, looked up)
chain: SLQNNQPVEFNHAINYVNKIKNRFQGQPDIYKAFLEILHTYQKEQRNAKEAGGNYTPALTEQEVYAQVARLFKNQEDLLSEFGQFLPDAN
notes: SIN3A, human, paired amphipathic helix domain 2 (PAH2), residues S295-N384; Non-labelled
